T1: amphyphisin SH3 (AMPH_HUMAN), P49418
T1 chain: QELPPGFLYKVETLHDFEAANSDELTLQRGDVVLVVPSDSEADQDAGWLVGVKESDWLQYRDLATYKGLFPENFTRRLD


Experiments:
[1] = target: T1, amphyphisin SH3 (AMPH_HUMAN), P49418; experiment: SPOT array
[2] = target: endophilin SH3 (SH3G2_HUMAN), Q99962; experiment: SPOT array

| normalised SPOT signal, Boehringer light units (BLU); mean over the file's lines of this peptide [1] | normalised SPOT signal, Boehringer light units (BLU); mean over the file's lines of this peptide [2] | Binder |
| --- | --- | --- |
| 102 | 150 | LPEELPRPRRPPPE [P22460 81-94] |
| 45.3 | 268 | LLGKPKRPRSAYNV [Q00059 151-164] |
| 39.6 | 57.1 | LPEVPEKPPAGESV [Q9NVI4 527-541] |
| 3240 | 638 | APPQIRRPNREVRP [Q9BW62 109-122] |
| 702 | 205 | APPRLARPPRFYEA [Q9HAH7 279-292] |
| 5020 | 3500 | LLPALRRPSRASSA [O95327 190-203] |
| 16.4 | 73.2 | LPFYFKRPPINVAI [P78346 133-146] |
| 207 | 104 | LPKGLGRPGKGHYW [Q12946 84-97] |
| 71.8 | 212 | LNKYLSRPKRFEVA [Q9Y648 264-277] |
| 39.2 | 309 | APPVLKRPILQSLL [Q14700 527-540] |
| 103 | 3240 | LLPGPGRPPPPPTK [Q9UJJ7 274-288] |
| 159 | 89.6 | LLLLLYRPPRYQIA [O60725 54-67] |
| 816 | 1280 | LLMVPRRPGYGTMG [Q96JZ0 14-27] |
| 183 | 3260 | LLMVPRRPGYGAMG [Q9H9G7 14-27] |
| 87 | 1540 | LLLHPRRPRLHPGT [O95141 51-64] |
| 1190 | 62.4 | LNPDFSRPNRKYTW [P35573 181-194] |
| 90.2 | 87.4 | LLIIISRPARLLES [O60307 271-284] |
| 41.1 | 99 | LLYTLRRPYFRKME [P36888 164-177] |
| 49.7 | 210 | LPHWLRRPVYSLYI [Q9UG56 133-146] |
| 856 | 3870 | APPPPSRPPQPRPG [Q9NRK3 42-56] |

The remaining lines, values behind:

| Binder | normalised SPOT signal, Boehringer light units (BLU); mean over the file's lines of this peptide [1] | normalised SPOT signal, Boehringer light units (BLU); mean over the file's lines of this peptide [2] |
| --- | --- | --- |
| LLEQILRPSKFLTY [Q9P0V3 740-753] | 29.9 | 6.9 |
| LPENFRRPQTDQAV [Q9H8X4 102-115] | 20.2 | 40.7 |
| LPETFRRPQIDPAV [Q9UJL8 67-80] | 23.1 | 17.6 |
| LLEPPERPYRDREP [Q9HCM7 689-702] | 188 | 80.4 |
| LNRGPSRPRRQAGR [Q9NQA3 32-45] | 6720 | 207 |
| LMIHPPRPPKVLGL [P39191 481-494] | 450 | 1020 |
| LPGEPRRPAEIYHS [Q9P006 57-70] | 19.2 | 44.5 |
| LLSWIKRPSQRALR [Q9P145 28-41] | 28.6 | 568 |
| LPARPRRPTPTMVP [Q13545 30-43] | 10700 | 6910 |
| LLLPPPRPPHSDIT [Q9H6X1 45-59] | 873 | 1430 |
| LLYLPLKPPNMFPS [Q9H799 457-471] | 28.2 | 13.3 |
| LLGPFRRPTTQLRA [P25100 499-512] | 336 | 614 |
| LLPFPLRPPSPHSP [Q9HAF8 97-111] | 178 | 9850 |
| LPKHLRRPEPSKPQ [Q96M07 127-140] | 15.9 | 12.8 |
| LLDTIKRPALQGLS [Q9P2D8 4-17] | 41.8 | 47.1 |
| LNSSFSRPDRPASV [P18627 187-200] | 4090 | 123 |
| LLSQLGRPFREYEL [Q9C095 450-463] | 204 | 0 |
| LMIIIARPARLLES [Q9BYE8 416-429] | 335 | 167 |
| LLNTLKRPKRPPLK [Q96NX2 21-34] | 443 | 85 |
| LLLGIRRPEFLSRP [Q9NWT5 57-70] | 51.2 | 1340 |
| LLFSLRRPSSTVTM [Q96SW7 100-113] | 54.9 | 537 |
| LPIAFIRPFREHHI [Q9UKL1 106-119] | 6760 | 1060 |

Source: paper PMC314469, “Protein Interaction Networks by Proteome Peptide Scanning” (PLoS Biology, 2004)
